Measurements from PMC5406781, “Myxococcus xanthus DK1622 Coordinates Expressions of the Duplicate groEL and Single groES Genes for Synergistic Functions of GroELs and GroES” (Frontiers in Microbiology, 2017).

Biological target: the molecule itself
Experiment: native gel or EMSA; native PAGE (no SDS or mercaptoethanol, run in ice-water) of extracts of E. coli BL21(DE3) cells expressing GroEL1, GroEL2 or GroES alone, or GroEL1/GroEL2 co-expressed with GroES

B1: Myxococcus xanthus DK1622 GroEL2 (natural protein, UniProt Q1D3Y5 1-547, looked up)
chain: MAAKEIFFHQSAREAILRGVRTLSDAVAVTLGPKGRNVVIEKSFGSPTITKDGVTVAKEIDLENKFENMGAQMVKEVASKTSDKAGDGTTTATVLARAIYEEGLKLVAAGHSPMDLKRGIDKAVEVVVGELKSLSKPTADKKAITQVGTISANGDETIGAIIADAMEKVGKEGVITVEEAKGLETTLDVVEGMQFDRGYVSPYFVTNRERMEAVLEDPYILISEKKVSSMQDMIPLLEQVARSGKPLIIIADDIEGEALATLVVNKIRGVLNVCAVKAPGFGDRRKEMLQDIAVLTGGTVVSEDLGHKFETLTLTDLGRAKRVTVDKDNTTVVDGVGTKAAIEGRIKLIRTQIDSVTSDYDREKLQERLAKLVGGVAVINVGAATETEMKEKKARVEDALHATRAAVEEGIVPGGGVAYLRALPALEKLKPGGEQDFGVAIIRRALQEPLRKIASNAGVEGAVVINKVREGTGAFGYNARTEVYEDLEKAGVIDPTKVERTALQNAASVASLLLTTEAMVAERPKGKAKGGGAGAGMPDYGGDDMDY
notes: printed Mw 58.1 kDa; no His-tag added; UniProt may number the two paralogues the other way round (groL1 for the stand-alone gene); also called Cpn60; chaperonin GroEL; source: E. coli BL21(DE3), pET22b (pET22b-GroEL2-NoHis); purified (100-kDa cut-off concentration, Superdex 200) for the pull-down, in cell extract for native PAGE; copies: 14
  stoichiometry N: 14

B2: Myxococcus xanthus DK1622 GroES without His-tag (natural protein, UniProt Q1D2S2 1-96, looked up)
chain: MKIRPLQDRLIVKRVAEENKTKGGLFIPDTAKEKPLEGKVIAVGNGKVQEDGKVRPLDIKAGDTILFSKYAGTEIKLDGEEHLILREEDVLGVIEK
notes: printed Mw 10.7 kDa; construct named NoHis; also called Cpn10; GroES-NoHis; source: E. coli BL21(DE3), pET28a-GroES-NoHis, in cell extract
  stoichiometry N: 7

B3: Myxococcus xanthus DK1622 GroEL1 (natural protein, UniProt Q1D2S1 1-549, looked up)
chain: MAKDILFDVRAREAILRGVNILADAVKVTLGPKGRNVVIEKSFGSPTITKDGVTVAKEIELENKFENMGAQMVKEVASKTSDVAGDGTTTATVLAQAIFREGAKLVAAGHNPMDIKRGIDKAVGAIVAELKKLAKPTKDKKEIAQVGTISANGDETIGTIIADAMEKVGKEGVITVEEAKGLETTLDVVEGMQFDRGYLSPYFVTDPERMEAALNDALILINEKKISSMKDLLPILEQVARAGKPLLIIAEDIEGEALATLVVNKIRGVLNVCAVKAPGFGDRRKAMLEDIATLTGGRMIAEDLGIKLDTITLQDLGRAKRITVDKDNTTIVDGAGGQQEIEARVKQIRAQIEETSSDYDREKLQERLAKLVGGVAVINVGAATETEMKEKKARVEDALNATRAAVEEGVVPGGGVAYIRCLKALDGLQLSGGEKFGVDIIRRAVEEPLRQIVGNGGLEGSVVVNKVKESSGPFGFNAATGTYEDLLAAGVIDPAKVSRTALQNAASVSSLMLTTEAMVAERPKEEKDLPAGGGMGGMGGMGGMGGMGM
notes: printed Mw 57.9 kDa; no His-tag added; UniProt may number the two paralogues the other way round (groL2 for the gene next to groES); also called Cpn60; chaperonin GroEL; source: E. coli BL21(DE3), pET22b (pET22b-GroEL1-NoHis); purified (100-kDa cut-off concentration, Superdex 200) for the pull-down, in cell extract for native PAGE; copies: 14
  stoichiometry N: 14
